T1: hNE (Homo sapiens, UniProt P08246)
T1 construct: purchased Elastin Products Company (EPC)
T1 sequence (P08246 30-247): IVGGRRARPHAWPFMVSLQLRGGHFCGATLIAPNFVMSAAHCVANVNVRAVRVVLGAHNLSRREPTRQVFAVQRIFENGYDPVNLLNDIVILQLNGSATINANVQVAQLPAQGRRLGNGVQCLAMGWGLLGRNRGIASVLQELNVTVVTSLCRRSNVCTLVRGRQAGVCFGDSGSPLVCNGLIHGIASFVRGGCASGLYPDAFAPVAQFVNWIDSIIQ

B1: NbE201-PEG40: NbE201-Cter conjugated via C-terminal cysteine to branched 40 kDa PEG-maleimide (conjugate)
VHH: QVQLQESGGGLVQAGGSLRLSCVVPGRTISLYRMGWFRQAPGKEREFVAGINWSGDMTDYVDSVKGRFTISRDNAKNTVYLEMNSLKPEDTAIYYCTADPKLLPLADSSYGYWGQGTQVTVSSSPSTPPTPSPSTPPC
B2: NbE201: anti-hNE ISVD (VHH/nanobody) from immunized lama, amino acid sequence SEQ ID NO: 4 (protein)
VHH: QVQLQESGGGLVQAGGSLRLSCVVPGRTISLYRMGWFRQAPGKEREFVAGINWSGDMTDYVDSVKGRFTISRDNAKNTVYLEMNSLKPEDTAIYYCTADPKLLPLADSSYGYWGQGTQVTVSS

How the values were obtained:
[1] = Physical stress (nebulization, agitation, freeze/thaw): concentration by A280 nm before/after centrifugation; assay type: physicochemical; details: for Initial concentration percentage after centrifugation: 10 000 g 10 min
Description: A 0.25 mg/ml solution of NbE201, NbE201-PEG10 or NbE201-PEG40 was prepared and divided in order to apply the following conditions: control, 1 or 4 h of agitation with a magnetic bar, nebulization, 5 or 10 freeze/thaw cycles.
2.3.1 Stability towards agitation. 100 μl of a 0.25 mg/ml ISVDs solution were agitated in a 1 ml glass vial with a 2×5 mm magnetic bar (VWR, Radnor, USA) at 200 rpm during 1 or 4 hours.
2.3.2 Stability towards Nebulization. 300 μl of a 0.25 mg/ml ISVDs solution were nebulized with a MeSH nebulizer (InnoSpire Go, Phillips, Amsterdam, The Netherlands).
2.3.3 Stability towards freezing/thawing. 100 μl of a 0.25 mg/ml ISVDs solution underwent 5 or 10 freeze/thaw (F/T) cycles. Freezing was performed in a −20° C. freezer and thawing was performed at RT.
2.3.4 Concentration measurements. Concentrations and UV spectra were measured by spectrophotometry (NanoDrop 2000/2000c spectrophotometer, ThermoFisher). Concentrations were determined based on the absorbance at 280 nm. NbE201 and NbE201-Cter mass extinction coefficients applied to the measurements were 1.888 and 1.716 (mg/mL)^−1 cm^−1 respectively. Regarding the ISVDs exposed to physical stresses, the concentration was read before and after centrifugation at 10 000 g at 4° C. for 10 min.

[2] = Spray-dried powder: concentration before/after centrifugation; assay type: physicochemical; details: spray-dried powder solubilized and dialysed; 10 000 g ten minutes
Description: (§1) Dry powders for inhalation were formulated with the NbE201 and the NbE201-PEG40. The spray dryer used was the PROCEPT's modular 4M8-Trix.
The integrity of the ISVD within the spray-dried powders was then evaluated after solubilizing the powders into water followed by a dialysis into phosphate buffer (50 mM, pH7). Protein concentration was measured by reading the absorbance at 280 nm before and after centrifugation at 10 000 g for ten minutes in order to detect the presence of insoluble aggregates.

hNE [3] = molecular target: T1, hNE; experiment: hNE inhibitory capacity after physical stress; assay type: biochemical; details: hNE: Nb molar ratio 1:1, compared to unexposed ISVD
Description: 2.2.1 Evaluation of the proteolytic activity inhibition on purified hNE. hNE activity was assessed by following the degradation of a chromogenic hNE substrate, N-succinyl-alanine-alanine-proline-valine-p-nitroanilide (suc-Ala-Ala-Pro-Val-pNA, Elastin products, Owensville, Missouri, USA), measuring the absorbance at 410 nm with a spectrophotometer (Spectramax ID5, Molecular Devices, San Jose, USA). The substrate was diluted to a concentration of 1.5 mM in a tris buffer (0.1M tris, 0.5M NaCl, 0.01% NaN3, pH 7.5) and 200 μl of this solution were added to the wells of a 96-well plate and heated at 37° C. Purified hNE (Elastin products) was reconstituted on ice in a 0.05M Sodium acetate (NaOAc), 0.1M NaCl buffer at pH5 to a concentration of 0.1 mg/ml. 10 μl of this hNE solution were added per well and the substrate degradation was followed during 20 min to verify the hNE activity in the wells. ISVDswere then added to the wells at the desired hNE: ISVD ratio, and the substrate degradation was then followed during 50 min. Slopes were calculated from the regression line drawn from the absorbance measurements and were expressed as a percentage of the hNE activity without ISVDs. […]

[4] = Pharmacokinetic study, intratracheal instillation, BAL content by ELISA; assay type: in vivo, mice
Description: 2.5.1. Instillation of mice and collection of BAL. […] Broncho-alveolar lavages (BAL), nasal lavages (NAL), blood samples, and lungs were collected 0, 4 or 24 h after instillation. BAL and NAL were collected with 2 ml and 1 ml of Hanks' Balanced Salt Solution (HBSS) buffer respectively. Cells were discarded from BAL and NAL samples via a 5 min centrifugation at 300 g and supernatants were stored at −20° C. Lungs were collected in 0.5 ml of HBSS buffer, ground (Precellys evolution, Bertin Technologies, Montigny-le-bretonneux, France) and centrifuged at 300 g for 15 min. Supernatants were stored at −20° C. Blood was collected by intra-cardiac puncture and stored in anti-coagulant tubes (Microvette®) 500, K3 EDTA, VWR) at −20° C. All samples were treated with an anti-protease cocktail (Roche).
2.5.2. ELISA analysis. ISVD and AAT content in the BALs collected in vivo were measured by a sandwich ELISA method. An ELISA conversion pack from Meso scale Discovery (Rockville, USA) was used for ISVD analysis, according to the manufacturer instructions. Uncoated Mesoscale compatible plates were coated with an anti-histag antibody (BioLegend, San Diego, USA). ISVDs were then detected with an anti-VHH antibody (Jackson ImmunoResearch, Ely, UK) mixed with an anti-goat Sulfo-TAG labelled antibody (Meso scale Discovery) and the signal was read with an MESO QuickPlex SQ 120 MM (Meso scale Discovery). AAT content in the samples was measured by a commercial ELISA kit (Human Serpin Al DuoSet ELISA, R&D system, Mineapolis, USA) according to manufacturer instructions.

hNE [5] = molecular target: T1, hNE; experiment: Spray-dried powder: hNE inhibition after solubilizing; assay type: biochemical; details: [hNE]:[ISVD] 1:1
Description: as §1
The inhibitory activity was also assessed after solubilizing the powders. The inhibitory capacity of the Nbs were assessed in an in vitro assay at a [hNE]:[ISVD] ratio of 1:1. The inhibition capacity of the solubilized powders was compared to the inhibition capacity of their respective controls (eg. untreated NbE201 or NbE201-PEG40). […] The protein concentration used to calculate the hNE: ISVD ratio was the concentration read after centrifugation.

[6] = hNE + Solubilized powder, with aggregates
[7] = hNE + Solubilized powder, without aggregates (after centrifugation)

Row | Molecule | Initial concentration percentage before centrifugation ([1]; Agitation (1 h)) | Initial concentration percentage after centrifugation ([1]; Agitation (1 h)) | Initial concentration percentage before centrifugation ([1]; Agitation (4 h)) | Initial concentration percentage after centrifugation ([1]; Agitation (4 h)) | Initial concentration percentage before centrifugation ([1]; Control) | Initial concentration percentage after centrifugation ([1]; Control) | Initial concentration percentage before centrifugation ([1]; F/T 5x) | Initial concentration percentage after centrifugation ([1]; F/T 5x) | Initial concentration percentage before centrifugation ([1]; F/T 10x) | Initial concentration percentage after centrifugation ([1]; F/T 10x) | Initial concentration percentage before centrifugation ([1]; Nebulization) | Initial concentration percentage after centrifugation ([1]; Nebulization) | concentration after centrifugation as % of concentration before centrifugation [2] | loss of hNE inhibitory capacity after nebulization, agitation or F/T cycles (hNE [3]) | percentage of the dose collected at time 0 quantified in BAL after 24 h ([4]; Swiss mice) | percentage of the dose collected at time 0 quantified in BAL after 24 h ([4]; β-ENaC mice) | hNE Inhibition percentage (hNE [5]; hNE + Control sdAb (untreated)) | hNE Inhibition percentage (hNE [5]; [6]) | hNE Inhibition percentage (hNE [5]; [7])
1 | B1 | 99 ± 1% | 98 ± 1% | 98 ± 1% | 99 ± 1% | 100 ± 0% | 99 ± 1% | 97 ± 2% | 99 ± 1% | 97 ± 2% | 97 ± 3% | 88 ± 3% (****) | 88 ± 3% (****) | 97±2% | did not display any significant loss of inhibitory activity | 65% | 56% | 70 ± 2% | 67 ± 2% | 72 ± 1%
2 | B2 | 93 ± 4% | 54 ± 12% (****) | 77 ± 6% (**) | 27 ± 19% (****) | 100 ± 0% | 100 ± 0% ^ | 96 ± 8% | 85 ± 10% (*) | 103 ± 5% | 75 ± 9% (**) | 73% ± 3% (***) | 31 ± 2% (****) | 53±3% | the greatest losses were observed with nebulization and 4 h of agitation | 4.4% | 3.3% | 76 ± 1% | 48 ± 5% | 78 ± 2%

Reference: US20260209387A1, “SINGLE-DOMAIN ANTIBODY FOR INHIBITION OF NEUTROPHIL ELASTASE ACTIVITY” (UNIVERSITE DE LIEGE, priority 2023, published 2026)
